{"source": "patent EP2871189A1", "about": "(INSTITUT PASTEUR, dated 2015)", "binders": {"B1": {"name": "monoclonal antibody C23.21 (antibody, V domains shown)", "VH": "EVQLEQSGPELVKPGASVKMSCKASGYTFTNYYMKWVKQSHGKSLEWIGDLNPNNGDTFYNQKFKGKATLTVDKSSNTAYMQLNSLTSEDSAVYYCARTGRYEENAMDYWGQGTSVTVSS", "VL": "ELVMTQSPASLAVSLGQRATISCRASESVDSYGKSFMHWYQLKPGQPPKLLIYRASNLESGVPARFSGSGSRTDFTLTIDPVEADDAATYYCQQNNEDPWTFGGGTKLEIK", "notes": "also called C23-21 mAb; anti-strep tag C23-21 mAb"}}, "key": {"[1]": {"target": "recombinant ectodomain of glycoprotein E2 of GB virus (GBV-B) fused to the double Strep-Tag (GB virus (GBV-B))", "experiment": "Western blot"}, "[2]": {"target": "T1, VHH-E9 containing the strep-tag sequence of SEQ ID NO: 13 at the C terminus", "T1 construct": "also called Strep-tagged anti-GFAP VHH E9; anti-GFAP VHH E9", "experiment": "ELISA assay after Friguet et al 1985 (method as in the sentence before)"}}, "data": [{"binder": "B1", "values": [{"measurement": "binding result", "setting": "[1]", "value": "binds"}, {"measurement": "Kd", "setting": "[2]", "value": 0.91, "unit": "nM"}]}]}
